Legend:
Assay in all cases: flow cytometry on 293T cells overexpressing EphA1-A8
[1] = molecular target: T1, EphA7 overexpressed on 293T cells (UniProt Q15375 28-998, limits assumed)
T1 construct: whole, on cells
Description: (§1) To detect the binding specificity of scFv, 293T cells were transformed with EphA1-A8 plasmids individually for overexpression of different EphA molecules. The cell line was freshly prepared and washed with FACS buffer (2% FBS in PBS). The cells were seeded at 1×10⁵ cells/well into a 96-well Ubottom plate and incubated with scFv for 1 h at 4° C. After the plate was washed with FACS buffer, the anti-hemagglutinin (HA) antibody was added for scFv binding detection (scFv was fused with a HA tag) and subsequently developed using an FITC-conjugated secondary antibody. Finally, the cell binding signal was analyzed using a FACS can flow cytometer.

[2] = molecular target: T2, EphA8 overexpressed on 293T cells (UniProt P29322 28-1005, limits assumed)
T2 construct: whole, on cells
T2 sequence (looked up): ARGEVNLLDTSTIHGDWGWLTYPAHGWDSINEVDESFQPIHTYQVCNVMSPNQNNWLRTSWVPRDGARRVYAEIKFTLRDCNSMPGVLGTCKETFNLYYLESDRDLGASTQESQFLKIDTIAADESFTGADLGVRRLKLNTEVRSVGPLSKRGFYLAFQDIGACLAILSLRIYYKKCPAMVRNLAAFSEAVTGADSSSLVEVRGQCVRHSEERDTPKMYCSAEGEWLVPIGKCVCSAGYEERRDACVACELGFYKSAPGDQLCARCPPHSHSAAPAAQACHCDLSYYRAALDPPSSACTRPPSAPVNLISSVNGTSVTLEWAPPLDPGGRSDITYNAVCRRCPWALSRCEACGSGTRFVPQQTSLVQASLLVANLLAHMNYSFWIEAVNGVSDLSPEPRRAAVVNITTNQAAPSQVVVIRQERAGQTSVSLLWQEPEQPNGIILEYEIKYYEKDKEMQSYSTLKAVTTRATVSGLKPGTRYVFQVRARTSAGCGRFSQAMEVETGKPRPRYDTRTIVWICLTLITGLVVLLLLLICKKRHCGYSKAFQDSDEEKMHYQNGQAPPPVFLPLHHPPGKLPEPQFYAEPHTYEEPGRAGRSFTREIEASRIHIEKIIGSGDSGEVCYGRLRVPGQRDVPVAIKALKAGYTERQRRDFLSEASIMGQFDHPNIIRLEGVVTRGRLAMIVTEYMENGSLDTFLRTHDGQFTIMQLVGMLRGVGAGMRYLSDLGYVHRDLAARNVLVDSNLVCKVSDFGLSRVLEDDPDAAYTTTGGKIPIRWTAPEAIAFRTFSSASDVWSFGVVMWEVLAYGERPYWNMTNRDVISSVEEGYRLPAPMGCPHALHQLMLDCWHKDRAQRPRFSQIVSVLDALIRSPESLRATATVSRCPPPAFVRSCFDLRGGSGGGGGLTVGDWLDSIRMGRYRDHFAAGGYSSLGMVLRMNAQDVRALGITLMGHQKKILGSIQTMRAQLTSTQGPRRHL
Description: as §1

[3] = molecular target: T3, EphA4 overexpressed on 293T cells (UniProt P54764 20-986, limits assumed)
T3 construct: whole, on cells
T3 sequence (P54764 20-986 limits assumed): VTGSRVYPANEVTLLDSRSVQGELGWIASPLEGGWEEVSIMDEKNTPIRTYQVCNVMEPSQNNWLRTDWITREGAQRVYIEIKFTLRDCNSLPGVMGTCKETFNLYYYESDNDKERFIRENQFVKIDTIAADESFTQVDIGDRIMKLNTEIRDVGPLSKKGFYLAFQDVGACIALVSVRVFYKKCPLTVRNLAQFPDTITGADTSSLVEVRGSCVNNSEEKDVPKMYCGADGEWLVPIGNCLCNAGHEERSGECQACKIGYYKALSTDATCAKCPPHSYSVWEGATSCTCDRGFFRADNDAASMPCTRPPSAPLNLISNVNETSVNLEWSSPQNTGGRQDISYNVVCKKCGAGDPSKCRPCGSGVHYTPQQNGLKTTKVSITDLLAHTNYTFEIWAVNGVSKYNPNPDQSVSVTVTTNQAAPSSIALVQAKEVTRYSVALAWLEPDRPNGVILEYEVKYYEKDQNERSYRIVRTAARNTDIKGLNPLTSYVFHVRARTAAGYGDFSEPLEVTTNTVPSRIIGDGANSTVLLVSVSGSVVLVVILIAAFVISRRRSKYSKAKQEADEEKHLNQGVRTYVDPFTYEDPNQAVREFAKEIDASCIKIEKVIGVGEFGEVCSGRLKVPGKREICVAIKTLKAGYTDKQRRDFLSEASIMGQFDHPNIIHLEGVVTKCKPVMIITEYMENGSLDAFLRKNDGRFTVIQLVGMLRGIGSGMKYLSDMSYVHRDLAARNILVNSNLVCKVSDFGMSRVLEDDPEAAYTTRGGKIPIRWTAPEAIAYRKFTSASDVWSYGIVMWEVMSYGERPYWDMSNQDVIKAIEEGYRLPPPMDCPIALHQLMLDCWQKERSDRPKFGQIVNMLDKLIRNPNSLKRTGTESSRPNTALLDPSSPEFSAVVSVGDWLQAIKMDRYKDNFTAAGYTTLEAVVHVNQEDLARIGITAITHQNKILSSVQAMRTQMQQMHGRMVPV
Description: as §1

[4] = molecular target: T4, EphA5 overexpressed on 293T cells (UniProt P54756 25-1037, limits assumed)
T4 construct: whole, on cells
T4 sequence (P54756 25-1037 limits assumed): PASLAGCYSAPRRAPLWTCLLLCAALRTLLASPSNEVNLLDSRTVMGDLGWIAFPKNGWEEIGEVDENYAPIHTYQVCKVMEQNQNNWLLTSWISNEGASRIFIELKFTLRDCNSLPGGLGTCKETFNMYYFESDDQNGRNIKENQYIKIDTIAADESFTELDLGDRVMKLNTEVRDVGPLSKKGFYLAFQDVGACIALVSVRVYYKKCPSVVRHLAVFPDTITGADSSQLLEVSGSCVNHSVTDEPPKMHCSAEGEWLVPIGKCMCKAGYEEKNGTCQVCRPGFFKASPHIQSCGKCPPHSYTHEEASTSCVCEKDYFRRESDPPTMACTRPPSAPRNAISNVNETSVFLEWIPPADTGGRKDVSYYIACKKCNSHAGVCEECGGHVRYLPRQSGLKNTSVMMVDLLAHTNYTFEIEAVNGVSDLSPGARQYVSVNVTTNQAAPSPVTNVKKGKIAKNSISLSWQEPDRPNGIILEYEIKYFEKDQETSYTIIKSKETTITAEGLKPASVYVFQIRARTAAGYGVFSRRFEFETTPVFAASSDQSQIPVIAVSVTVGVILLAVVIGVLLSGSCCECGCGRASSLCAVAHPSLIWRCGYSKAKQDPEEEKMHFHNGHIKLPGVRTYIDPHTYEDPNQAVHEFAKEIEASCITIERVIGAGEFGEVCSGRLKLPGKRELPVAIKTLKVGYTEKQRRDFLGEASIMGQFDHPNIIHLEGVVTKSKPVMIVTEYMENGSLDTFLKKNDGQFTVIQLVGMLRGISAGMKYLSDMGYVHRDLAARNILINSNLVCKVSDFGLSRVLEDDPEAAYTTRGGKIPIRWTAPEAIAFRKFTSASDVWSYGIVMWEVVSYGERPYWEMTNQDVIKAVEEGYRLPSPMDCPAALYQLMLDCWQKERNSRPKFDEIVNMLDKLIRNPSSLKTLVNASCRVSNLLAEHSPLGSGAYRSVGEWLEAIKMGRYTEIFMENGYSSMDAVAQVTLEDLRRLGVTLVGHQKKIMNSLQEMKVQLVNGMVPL
Description: as §1

[5] = molecular target: T5, EphA3 overexpressed on 293T cells (UniProt P29320 21-983, limits assumed)
T5 construct: whole, on cells
T5 sequence (looked up): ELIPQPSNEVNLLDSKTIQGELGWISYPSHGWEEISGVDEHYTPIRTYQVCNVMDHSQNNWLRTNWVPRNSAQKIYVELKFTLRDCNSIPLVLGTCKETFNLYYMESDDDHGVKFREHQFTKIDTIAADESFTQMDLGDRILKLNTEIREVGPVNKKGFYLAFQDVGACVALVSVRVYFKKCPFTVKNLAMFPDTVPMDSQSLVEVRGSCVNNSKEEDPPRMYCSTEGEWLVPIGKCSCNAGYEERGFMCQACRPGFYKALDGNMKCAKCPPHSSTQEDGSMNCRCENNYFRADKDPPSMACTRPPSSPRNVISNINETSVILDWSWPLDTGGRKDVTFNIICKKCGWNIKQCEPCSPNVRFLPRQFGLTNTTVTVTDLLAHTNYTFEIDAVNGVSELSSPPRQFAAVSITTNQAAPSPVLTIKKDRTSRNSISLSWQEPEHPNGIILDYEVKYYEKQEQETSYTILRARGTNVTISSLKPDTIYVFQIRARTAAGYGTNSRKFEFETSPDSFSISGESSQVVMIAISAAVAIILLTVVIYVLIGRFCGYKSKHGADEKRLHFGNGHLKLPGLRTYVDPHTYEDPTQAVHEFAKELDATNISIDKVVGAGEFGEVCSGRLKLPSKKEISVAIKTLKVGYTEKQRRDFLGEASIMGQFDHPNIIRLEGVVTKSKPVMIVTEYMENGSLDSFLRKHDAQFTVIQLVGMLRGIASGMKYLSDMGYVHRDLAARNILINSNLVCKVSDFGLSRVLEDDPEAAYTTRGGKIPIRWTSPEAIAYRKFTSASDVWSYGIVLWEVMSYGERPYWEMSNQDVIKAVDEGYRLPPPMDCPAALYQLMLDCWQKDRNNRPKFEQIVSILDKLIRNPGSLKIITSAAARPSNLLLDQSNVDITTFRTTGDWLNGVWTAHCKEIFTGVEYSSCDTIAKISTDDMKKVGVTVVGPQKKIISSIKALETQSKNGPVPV
Description: as §1

Measured: binding result

T1 sequence (Q15375 28-998 limits assumed): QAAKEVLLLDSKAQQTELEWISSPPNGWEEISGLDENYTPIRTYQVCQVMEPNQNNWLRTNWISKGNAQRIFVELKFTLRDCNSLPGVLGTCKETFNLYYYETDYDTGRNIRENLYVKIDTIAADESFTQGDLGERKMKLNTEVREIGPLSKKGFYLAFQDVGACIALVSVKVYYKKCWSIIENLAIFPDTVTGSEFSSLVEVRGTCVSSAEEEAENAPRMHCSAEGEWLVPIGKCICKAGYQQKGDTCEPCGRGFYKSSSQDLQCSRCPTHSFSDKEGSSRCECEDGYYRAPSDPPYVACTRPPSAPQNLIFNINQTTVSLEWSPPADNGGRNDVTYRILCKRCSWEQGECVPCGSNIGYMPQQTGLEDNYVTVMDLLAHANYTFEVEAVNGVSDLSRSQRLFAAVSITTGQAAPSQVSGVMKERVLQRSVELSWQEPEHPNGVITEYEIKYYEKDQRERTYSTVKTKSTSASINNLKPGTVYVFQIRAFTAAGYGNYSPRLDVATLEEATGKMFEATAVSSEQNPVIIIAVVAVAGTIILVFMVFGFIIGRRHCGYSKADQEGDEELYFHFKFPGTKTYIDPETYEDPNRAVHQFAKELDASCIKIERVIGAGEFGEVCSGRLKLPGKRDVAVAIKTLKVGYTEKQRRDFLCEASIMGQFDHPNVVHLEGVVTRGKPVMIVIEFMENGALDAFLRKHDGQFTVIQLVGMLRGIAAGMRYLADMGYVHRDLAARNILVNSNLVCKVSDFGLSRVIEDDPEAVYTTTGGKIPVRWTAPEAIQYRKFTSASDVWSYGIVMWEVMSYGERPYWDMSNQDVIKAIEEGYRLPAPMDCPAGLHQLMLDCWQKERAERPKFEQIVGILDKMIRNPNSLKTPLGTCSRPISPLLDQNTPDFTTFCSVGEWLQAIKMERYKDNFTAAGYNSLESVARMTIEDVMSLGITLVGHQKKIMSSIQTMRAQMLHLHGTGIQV

B1: Humanized scFv hSD5 (scFv)
scFv: LTQPPSVSVSPGQTVRITCSGSSGSYGWYQQKSPGQAPVTLIYDNDKRPSGIPERFSGSSSGSTSTLTISGVQAEDEADYYCGSADSSTYVGMFGGGTKLTVLGQSSRSSQVQLVESGGGLVQPGGSLRLSCAASGFTFSDYGMGWVRQAPGKGLEWVAGISAAGSFTPYGAAVKGRFTISRDNSKNTVYLQMNSLRAEDTAVYYCARIPSGYRAGEIYTWGQGTLVTVSS
notes: also called hSD5 scFv; Humanized scFv hSDS
no binding: all assays above

Reference: patent US20250340655A1, “EPHA2-TARGETING ANTIBODIES AND THEIR APPLICATIONS IN CANCER TREATMENT” (TAIPEI MEDICAL UNIVERSITY, priority 2022, published 2025)
